Experimental data from the supplement of paper PMC7877785.
± gives the uncertainty stated by the source.

Assay: self-splicing fitness, log relative to wild type (ln ratio); higher = more splicing; Tetrahymena group I intron in knt gene, E. coli kanamycin selection, DiMSum; sequences stand for … in CUCUCU…GGAGGGAAAAGUUAUCAGGCAUGCACCUGGUAGCUAGUCUUUAAACCAAUAGAUUGCAUCGGUUUAAAAGGCAAGACCGUCAAAUUGCGGGAAAGGGGUCAACAGCCGUUCAGUACCAAGUCUCAGGGGAAACUUUGAGAUGGCCUUGCAAAGGGUAUGGUAAUAAGCUGACGGACAUGGUCCUAACCACGCAGCCAAGUCCUAAGUCAACAGAUCUUCUGUUGAUAUGGAUGCAGUUCACAGACUAAAUGUCGGUCGGGGAAGAUGUAUUCUUCUCAUAAGAUAUAGUCGGACCUCUCCUUAAUGGGAGCUAGCGGAUGAAGUGAUGCAACACUGGAGCCGCUGGGAACUAAUUUGUAUGCGAAAGUAUAUUGAUUAGUUUUGGAGUACUCGUGGUCG
How it was run: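 DiMSum derived fitness as the error-weighted combination of fold changes across replicates, kanamycin versus no kanamycin, normalised to wild type. E. coli BL21(DE3) held the library, which randomised all eight P1ex-region intron nucleotides within the knt kanamycin-resistance gene on pET-22b(+). Six replicate transformations grew overnight at 37°C or 30°C on LB agar with or without 25 μg/mL kanamycin, also containing 100 μg/mL carbenicillin, 50 μM IPTG and 0.2% rhamnose, and pooled colonies were amplicon-sequenced on an Illumina HiSeq 2500.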

Row | Sequence | self-splicing fitness (ln) (30 °C) | self-splicing fitness (ln) (37 °C)
1 | CUUUAGCAAUAUUACGCCAG | -1.65 ± 0.28 | -0.616 ± 0.28
2 | CUUUAGCAAUAUUACGCGGC | -2.41 ± 0.35 | -0.897 ± 0.17
3 | CUUUAGCAAUAUUACGGAUU | – | -1.57 ± 0.41
4 | CUUUAGCAAUAUUACGGGAC | -3.25 ± 0.36 | -2.36 ± 0.42
5 | CUUUAGCAAUAUUACGGUAA | -2.37 ± 0.23 | -2.12 ± 0.26
6 | CUUUAGCAAUAUUACGGUAG | -1.81 ± 0.085 | -0.685 ± 0.11
7 | CUUUAGCAAUAUUACGUACC | – | -1.68 ± 0.3
8 | CUUUAGCAAUAUUACGUAGG | -1.05 ± 0.094 | -0.65 ± 0.13
9 | CUUUAGCAAUAUUACGUAUC | -3.56 ± 0.35 | -3.21 ± 0.4
10 | CUUUAGCAAUAUUACGUAUG | -0.82 ± 0.11 | -0.4 ± 0.12
11 | GAAAAGCAAUAUUACGAAAC | -2.88 ± 0.14 | -0.0376 ± 0.11
12 | GAAAAGCAAUAUUACGACGC | -0.132 ± 0.069 | 0.493 ± 0.093
13 | GAAAAGCAAUAUUACGACUG | -0.58 ± 0.094 | -0.857 ± 0.1
14 | GAAAAGCAAUAUUACGACUU | -0.183 ± 0.063 | 0.52 ± 0.096
15 | GAAAAGCAAUAUUACGAGAC | -2.59 ± 0.29 | -0.985 ± 0.16
16 | GAAAAGCAAUAUUACGAUAG | -3.28 ± 0.15 | -1.69 ± 0.15
17 | GAAAAGCAAUAUUACGAUCU | -0.472 ± 0.075 | -0.478 ± 0.085
18 | GAAAAGCAAUAUUACGCAGC | -2.9 ± 0.17 | -1.74 ± 0.19
19 | GAAAAGCAAUAUUACGCCUG | -0.929 ± 0.081 | -0.273 ± 0.11
20 | GAAAAGCAAUAUUACGCGGC | -3.33 ± 0.19 | -3.07 ± 0.26
21 | GAAAAGCAAUAUUACGCGGU | -3.4 ± 0.21 | -1.21 ± 0.16

Row | Sequence | self-splicing fitness (ln) (30 °C) | self-splicing fitness (ln) (37 °C)
22 | GAAAAGCAAUAUUACGCUCU | -2.07 ± 0.13 | -1.27 ± 0.13
23 | GAAAAGCAAUAUUACGGAAG | -3.88 ± 0.31 | -1.32 ± 0.16
24 | GAAAAGCAAUAUUACGGACA | -0.576 ± 0.056 | -0.269 ± 0.064
25 | GAAAAGCAAUAUUACGGACG | -1.05 ± 0.092 | -0.401 ± 0.1
26 | GAAAAGCAAUAUUACGGAGU | -3.18 ± 0.15 | -2.11 ± 0.15
27 | GAAAAGCAAUAUUACGGCAA | -0.142 ± 0.1 | -0.719 ± 0.11
28 | GAAAAGCAAUAUUACGGGUU | -1.27 ± 0.095 | -1.22 ± 0.12
29 | GAAAAGCAAUAUUACGUCAC | -2.2 ± 0.19 | -1.64 ± 0.31
30 | GAAAAGCAAUAUUACGUCUC | -1.3 ± 0.073 | -0.38 ± 0.092
31 | GAAAAGCAAUAUUACGUGUG | -2.31 ± 0.062 | -1.06 ± 0.072
32 | GAAAAGCAAUAUUACGUUUU | -3.8 ± 0.18 | -2.4 ± 0.13
33 | GAACAGCAAUAUUACGAACC | -1.6 ± 0.12 | -0.809 ± 0.13
34 | GAACAGCAAUAUUACGACAU | -0.575 ± 0.011 | -0.153 ± 0.032
35 | GAACAGCAAUAUUACGACGA | -0.494 ± 0.085 | 0.265 ± 0.097
36 | GAACAGCAAUAUUACGACUG | -1.45 ± 0.085 | 0.155 ± 0.1
37 | GAACAGCAAUAUUACGAGAU | -3.55 ± 0.12 | -1.4 ± 0.09
38 | GAACAGCAAUAUUACGAGUA | -2.87 ± 0.12 | -1.98 ± 0.1
39 | GAACAGCAAUAUUACGCAUC | -2.79 ± 0.095 | -2.01 ± 0.12
40 | GAACAGCAAUAUUACGGAGC | -1.93 ± 0.057 | -1.13 ± 0.083
41 | GAACAGCAAUAUUACGGCGU | -0.302 ± 0.083 | 0.212 ± 0.097
42 | GAACAGCAAUAUUACGGGAC | -2.66 ± 0.085 | -1.36 ± 0.085
